Experimental data: the supplement of paper PMC6757056
± gives the standard deviation of the averaged measurements.

B1: library; a variant is named by its letters at N, in order (parent)
chain: GCUGUCACCGGUGCUUGGUACGUUAUAUUCAGCCGGUCUGAUGAGUCUNNNNNNAGACGAAACAGC

Columns and labels:
(6R,S)-folinic acid [1] = variants of: B1; test: normalized RNA/DNA level without ligand (relative to sTRSVctl = 100) (log10 (% of sTRSVctl)); HEK293T overexpressing SLC46A1; higher = less ribozyme self-cleavage, higher mRNA level; details: without (6R,S)-folinic acid; ligand present: no
Procedure, shortened: (§1)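 Library plasmids carrying ribozyme switches linked to mCherry, or to eGFP in some ligand experiments, were transfected into HEK293T at 4 µg per 6-well well, with any ligand added 1 h earlier. Seventy-two hours on, total RNA was extracted with EDTA and reverse-transcribed, amplified, barcoded and sequenced. RNA level was RNA over DNA reads normalized to a spiked-in non-cleaving sequence or to the top sequences, then scaled and log-transformed. The top set was 25 sequences, the transform was ×100 and log10, and sequences needed ≥100 DNA reads.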

(6R,S)-folinic acid [2] = variants of: B1; test: normalized RNA/DNA level with ligand (relative to sTRSVctl = 100) (log10 (% of sTRSVctl)); HEK293T overexpressing SLC46A1; ligand concentration (+) RNA-Seq: 6 mM; higher = less ribozyme self-cleavage, higher mRNA level; details: with (6R,S)-folinic acid; ligand present: yes
Procedure, shortened: as §1

Variant: UACGGC
- normalized RNA/DNA level without ligand (log10) ((6R,S)-folinic acid [1]): 2.05 ± 0.0049
- normalized RNA/DNA level with ligand (log10) ((6R,S)-folinic acid [2]): 2.05 ± 0.063

Variant: GAAUGU
- normalized RNA/DNA level without ligand (log10) ((6R,S)-folinic acid [1]): 1.988 ± 0.015
- normalized RNA/DNA level with ligand (log10) ((6R,S)-folinic acid [2]): 2.01 ± 0.035

Variant: GAAUGC
- normalized RNA/DNA level without ligand (log10) ((6R,S)-folinic acid [1]): 1.943 ± 0.012
- normalized RNA/DNA level with ligand (log10) ((6R,S)-folinic acid [2]): 2 ± 0.036

Variant: CAAGCG
- normalized RNA/DNA level without ligand (log10) ((6R,S)-folinic acid [1]): 2.057 ± 0.015
- normalized RNA/DNA level with ligand (log10) ((6R,S)-folinic acid [2]): 2.062 ± 0.0093

Variant: CAAGCC
- normalized RNA/DNA level without ligand (log10) ((6R,S)-folinic acid [1]): 2.099 ± 0.01
- normalized RNA/DNA level with ligand (log10) ((6R,S)-folinic acid [2]): 2.03 ± 0.046

Variant: GACGUC
- normalized RNA/DNA level without ligand (log10) ((6R,S)-folinic acid [1]): 2.065 ± 0.0072
- normalized RNA/DNA level with ligand (log10) ((6R,S)-folinic acid [2]): 2.02 ± 0.054

Variant: GACGUU
- normalized RNA/DNA level without ligand (log10) ((6R,S)-folinic acid [1]): 2 ± 0.022
- normalized RNA/DNA level with ligand (log10) ((6R,S)-folinic acid [2]): 2.01 ± 0.045

Variant: CACCCA
- normalized RNA/DNA level without ligand (log10) ((6R,S)-folinic acid [1]): 2.011 ± 0.017
- normalized RNA/DNA level with ligand (log10) ((6R,S)-folinic acid [2]): 2.01 ± 0.059

Variant: CACCCU
- normalized RNA/DNA level without ligand (log10) ((6R,S)-folinic acid [1]): 2.059 ± 0.0058
- normalized RNA/DNA level with ligand (log10) ((6R,S)-folinic acid [2]): 2.04 ± 0.012

Variant: CACCCG
- normalized RNA/DNA level without ligand (log10) ((6R,S)-folinic acid [1]): 2.018 ± 0.0098
- normalized RNA/DNA level with ligand (log10) ((6R,S)-folinic acid [2]): 2.01 ± 0.031

Variant: CACCCC
- normalized RNA/DNA level without ligand (log10) ((6R,S)-folinic acid [1]): 2.031 ± 0.019
- normalized RNA/DNA level with ligand (log10) ((6R,S)-folinic acid [2]): 2.01 ± 0.022

Variant: GAAGCC
- normalized RNA/DNA level without ligand (log10) ((6R,S)-folinic acid [1]): 2.022 ± 0.0083
- normalized RNA/DNA level with ligand (log10) ((6R,S)-folinic acid [2]): 2.03 ± 0.047

Variant: CAAUAU
- normalized RNA/DNA level without ligand (log10) ((6R,S)-folinic acid [1]): 1.95 ± 0.025
- normalized RNA/DNA level with ligand (log10) ((6R,S)-folinic acid [2]): 2 ± 0.033

Variant: CAAUAC
- normalized RNA/DNA level without ligand (log10) ((6R,S)-folinic acid [1]): 1.984 ± 0.017
- normalized RNA/DNA level with ligand (log10) ((6R,S)-folinic acid [2]): 1.97 ± 0.038

Variant: AACCAC
- normalized RNA/DNA level without ligand (log10) ((6R,S)-folinic acid [1]): 2.007 ± 0.0059
- normalized RNA/DNA level with ligand (log10) ((6R,S)-folinic acid [2]): 1.963 ± 0.015

Variant: GAACAC
- normalized RNA/DNA level without ligand (log10) ((6R,S)-folinic acid [1]): 1.998 ± 0.018
- normalized RNA/DNA level with ligand (log10) ((6R,S)-folinic acid [2]): 2.014 ± 0.0037

Variant: GAACAU
- normalized RNA/DNA level without ligand (log10) ((6R,S)-folinic acid [1]): 1.9736 ± 0.0012
- normalized RNA/DNA level with ligand (log10) ((6R,S)-folinic acid [2]): 2.01 ± 0.035

Variant: CAACUU
- normalized RNA/DNA level without ligand (log10) ((6R,S)-folinic acid [1]): 2.039 ± 0.012
- normalized RNA/DNA level with ligand (log10) ((6R,S)-folinic acid [2]): 2.03 ± 0.052

Variant: CAACUG
- normalized RNA/DNA level without ligand (log10) ((6R,S)-folinic acid [1]): 2.029 ± 0.015
- normalized RNA/DNA level with ligand (log10) ((6R,S)-folinic acid [2]): 2.021 ± 0.016

Variant: CAACUC
- normalized RNA/DNA level without ligand (log10) ((6R,S)-folinic acid [1]): 2.06 ± 0.015
- normalized RNA/DNA level with ligand (log10) ((6R,S)-folinic acid [2]): 2.06 ± 0.024

Variant: CAACUA
- normalized RNA/DNA level without ligand (log10) ((6R,S)-folinic acid [1]): 2.01 ± 0.023
- normalized RNA/DNA level with ligand (log10) ((6R,S)-folinic acid [2]): 2.01 ± 0.035

Variant: AAAGUU
- normalized RNA/DNA level without ligand (log10) ((6R,S)-folinic acid [1]): 1.972 ± 0.0027
- normalized RNA/DNA level with ligand (log10) ((6R,S)-folinic acid [2]): 2.01 ± 0.016

Variant: AAAGUA
- normalized RNA/DNA level without ligand (log10) ((6R,S)-folinic acid [1]): 1.937 ± 0.014
- normalized RNA/DNA level with ligand (log10) ((6R,S)-folinic acid [2]): 2 ± 0.037

Variant: CAACGU
- normalized RNA/DNA level without ligand (log10) ((6R,S)-folinic acid [1]): 2.024 ± 0.0058
- normalized RNA/DNA level with ligand (log10) ((6R,S)-folinic acid [2]): 2.037 ± 0.019

Variant: CAACGG
- normalized RNA/DNA level without ligand (log10) ((6R,S)-folinic acid [1]): 1.9202 ± 0.00028
- normalized RNA/DNA level with ligand (log10) ((6R,S)-folinic acid [2]): 1.976 ± 0.0039

Variant: CAACGC
- normalized RNA/DNA level without ligand (log10) ((6R,S)-folinic acid [1]): 2.025 ± 0.011
- normalized RNA/DNA level with ligand (log10) ((6R,S)-folinic acid [2]): 2.02 ± 0.038

Variant: UACCAG
- normalized RNA/DNA level without ligand (log10) ((6R,S)-folinic acid [1]): 1.862 ± 0.011
- normalized RNA/DNA level with ligand (log10) ((6R,S)-folinic acid [2]): 1.96 ± 0.025

Variant: UACCAA
- normalized RNA/DNA level without ligand (log10) ((6R,S)-folinic acid [1]): 1.966 ± 0.0066
- normalized RNA/DNA level with ligand (log10) ((6R,S)-folinic acid [2]): 1.99 ± 0.02

Variant: UACCAU
- normalized RNA/DNA level without ligand (log10) ((6R,S)-folinic acid [1]): 1.9686 ± 0.001
- normalized RNA/DNA level with ligand (log10) ((6R,S)-folinic acid [2]): 2 ± 0.038
